The target of this test is HLA-A*02:01 (Homo sapiens, UniProt P04439, D140Y/D185E/D98H/E176V/E277Q/G131W/G231S/I119V/I121R/I166T/I218V/L300P/L318F/N151K/N90K/P208A/P217A/Q86G/Q94H/R138H/R169H/T345S). The test can be described thus: MHC binding assay: UV-ligand exchange with beta2m ELISA (exchange yield). The conditions noted are these: binding to HLA-A*02:01, β2m ELISA. In outline:
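Exchange yield reflects how much β2m remains bound, measured by ELISA: streptavidin capture of 100-fold diluted monomers, HRP anti-β2m at 37° C. for 1 h, TMB read at 450 nm. Monomers come from UV cleavage of a conditional HLA-A*02:01 ligand in the presence of the candidate peptide.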
In general terms: An ELISA detects its analyte on a solid surface through an enzyme-linked reagent.

The record followed here is US10280205B2, “Method for treating cancer with an activated T lymphocyte that selectively recognizes a cancer cell consisting of specific peptide” (immatics biotechnologies GmbH, priority 2015, dated 2019).

As to “114 (SLVGEPILQNV; listed as Homo sapiens) [compound 114]”, the “Peptide exchange (MHC class I binding score, peptide exchange yield)” value (“Peptide exchange” below) was ““++” (≥20% = ++)”.
As for “81 (FLFSQLQYL; listed as Homo sapiens) [compound 81]”, the “Peptide exchange” value is ““++” (≥20% = ++)”.
In the case of “565 (ALQETPTSV; listed as Homo sapiens) [compound 565]” it was ““++” (≥20% = ++)”; in that of “285 (QLLHVGVTV; listed as Homo sapiens) [compound 285]”, ““+++” (≥50 = +++)”; in that of “272 (ALGNTVPAV; listed as Homo sapiens) [compound 272]”, ““+++” (≥50 = +++)”.
In the case of “256 (FLPPEHTIVYI; listed as Homo sapiens) [compound 256]” it was ““+++” (≥50 = +++)”; in that of “572 (ALADLIEKELSV; listed as Homo sapiens) [compound 572]”, ““+++” (≥50 = +++)”; in that of “588 (SLLPLSHLV; listed as Homo sapiens) [compound 588]”, ““+++” (≥50 = +++)”.
For “41 (SLMPHIPGL; listed as Homo sapiens) [compound 41]” the value was ““+++” (≥50 = +++)”.
Consider “76 (ILIDSIYKV; listed as Homo sapiens) [compound 76]”, for which the “Peptide exchange” value is recorded as ““+++” (≥50 = +++)”.
In the case of “284 (ILLSQTTGV; listed as Homo sapiens) [compound 284]”, the “Peptide exchange” value was ““+++” (≥50 = +++)”.
For “15 (VLLTFKIFL; listed as Homo sapiens) [compound 15]” the value was ““++” (≥20% = ++)”; for “179 (KVLNELYTV; listed as Homo sapiens) [compound 179]”, ““+++” (≥50 = +++)”.
For “383 (ALLELENSVTL; listed as Homo sapiens) [compound 383]” the value was ““+++” (≥50 = +++)”; for “587 (VMNDRLYAI; listed as Homo sapiens) [compound 587]”, ““+++” (≥50 = +++)”.
As for “287 (FLNEFFLNV; listed as Homo sapiens) [compound 287]”, the “Peptide exchange” value is on record as ““+++” (≥50 = +++)”.
For “109 (IILSILEQA; listed as Homo sapiens) [compound 109]” the value was ““++++” (≥75% = ++++)”; for “555 (YVLEGLKSV; listed as Homo sapiens) [compound 555]”, ““+++” (≥50 = +++)”; for “513 (SLWPSPEQL; listed as Homo sapiens) [compound 513]”, ““++” (≥20% = ++)”.
For “226 (MLYVVPIYL; listed as Homo sapiens) [compound 226]” the value was ““++” (≥20% = ++)”; for “189 (ALQRKLPYV; listed as Homo sapiens) [compound 189]”, ““+++” (≥50 = +++)”; for “543 (GLLPTPITQQASL; listed as Homo sapiens) [compound 543]”, ““+++” (≥50 = +++)”.
In the case of “563 (WLLPYNGVTV; listed as Homo sapiens) [compound 563]” it was ““+++” (≥50 = +++)”.
For the substance “116 (YHIDEEVGF; listed as Homo sapiens) [compound 116]”, the “Peptide exchange” value is ““+” (≥10% = +)”.
In the case of “85 (KMSELRVTL; listed as Homo sapiens) [compound 85]” it was ““+++” (≥50 = +++)”.
Turning to “504 (GLSDGNPSL; listed as Homo sapiens) [compound 504]”, the “Peptide exchange” value is reported as ““++” (≥20% = ++)”.
In the case of “556 (FLTDLEDLTL; listed as Homo sapiens) [compound 556]”, the “Peptide exchange” value is listed as ““+++” (≥50 = +++)”.
Turning to “496 (FLVEKQPPQV; listed as Homo sapiens) [compound 496]”, the “Peptide exchange” value was ““+++” (≥50 = +++)”.
For “163 (ALDEMGDLLQL; listed as Homo sapiens) [compound 163]” the value was ““+++” (≥50 = +++)”.
In the case of “158 (KLFDVDEDGYI; listed as Homo sapiens) [compound 158]” it was ““+++” (≥50 = +++)”; in that of “121 (GVVDPRAISVL; listed as Homo sapiens) [compound 121]”, ““++” (≥20% = ++)”.
For the substance “444 (GLLRDEALAEV; listed as Homo sapiens) [compound 444]”, the “Peptide exchange” value is listed as ““+++” (≥50 = +++)”.
For the substance “610 (LLAPTPYIIGV; listed as Homo sapiens) [compound 610]”, the “Peptide exchange” value is ““+++” (≥50 = +++)”.
For “452 (ILLEHGADPNL; listed as Homo sapiens) [compound 452]” the value was ““+++” (≥50 = +++)”; for “74 (ALLDPEVLSIFV; listed as Homo sapiens) [compound 74]”, ““+++” (≥50 = +++)”; for “47 (ILLSVPLLVV; listed as Homo sapiens) [compound 47]”, ““++” (≥20% = ++)”.
Turning to “169 (NLPEYLPFV; listed as Homo sapiens) [compound 169]”, the “Peptide exchange” value was ““+++” (≥50 = +++)”.
“571 (LLLTTIPQI; listed as Homo sapiens) [compound 571]”: the “Peptide exchange” value is listed as ““+++” (≥50 = +++)”.
In the case of “107 (FLQPVDDTQHL; listed as Homo sapiens) [compound 107]” it was ““+++” (≥50 = +++)”; in that of “314 (ALIAEGIALV; listed as Homo sapiens) [compound 314]”, ““+++” (≥50 = +++)”.
For “191 (LLQEGQALEYV; listed as Homo sapiens) [compound 191]” the value was ““++” (≥20% = ++)”; for “614 (LLLPDQPPYHL; listed as Homo sapiens) [compound 614]”, ““+++” (≥50 = +++)”.
For “591 (SMAELDIKL; listed as Homo sapiens) [compound 591]” the value was ““+++” (≥50 = +++)”.
As for “51 (LLPDLEFYV; listed as Homo sapiens) [compound 51]”, the “Peptide exchange” value is reported as ““++++” (≥75% = ++++)”.
For the substance “316 (ILLERLWYV; listed as Homo sapiens) [compound 316]”, the “Peptide exchange” value is ““+++” (≥50 = +++)”.
In the case of “503 (SLNHFTHSV; listed as Homo sapiens) [compound 503]” it was ““+++” (≥50 = +++)”; in that of “104 (STMEQNFLL; listed as Homo sapiens) [compound 104]”, ““++++” (≥75% = ++++)”; in that of “463 (SLVESHLSDQLTL; listed as Homo sapiens) [compound 463]”, ““+++” (≥50 = +++)”.
For “304 (MTLGQIYYL; listed as Homo sapiens) [compound 304]” the value was ““+++” (≥50 = +++)”; for “108 (ALFPGVALLLA; listed as Homo sapiens) [compound 108]”, ““++++” (≥75% = ++++)”; for “437 (SMAPGLVIQAV; listed as Homo sapiens) [compound 437]”, ““+++” (≥50 = +++)”.
As for “334 (TLTKVLVAL; listed as Homo sapiens) [compound 334]”, the “Peptide exchange” value is given as ““+++” (≥50 = +++)”.
In the case of “53 (KMIETDILQKV; listed as Homo sapiens) [compound 53]” it was ““++++” (≥75% = ++++)”; in that of “327 (GLAPFTEGISFV; listed as Homo sapiens) [compound 327]”, ““+++” (≥50 = +++)”.
Turning to “515 (LLQELVLFL; listed as Homo sapiens) [compound 515]”, the “Peptide exchange” value is recorded as ““+++” (≥50 = +++)”.
For “34 (ILVEADSLWVV; listed as Homo sapiens) [compound 34]” the value was ““+++” (≥50 = +++)”.
On to “464 (ALNDCIYSV; listed as Homo sapiens) [compound 464]”, for which the “Peptide exchange” value is ““+++” (≥50 = +++)”.
On to “302 (ALLQEGEVYSA; listed as Homo sapiens) [compound 302]”, for which the “Peptide exchange” value is reported as ““+++” (≥50 = +++)”.
As to “374 (FLLQQHLISA; listed as Homo sapiens) [compound 374]”, the “Peptide exchange” value is listed as ““++” (≥20% = ++)”.
In the case of “328 (ALNDQVFEI; listed as Homo sapiens) [compound 328]” it was ““+++” (≥50 = +++)”; in that of “474 (YLDPALELGPRNV; listed as Homo sapiens) [compound 474]”, ““+++” (≥50 = +++)”.
